Results reported in publication PMC2253824.

Biological target: TTC4, endogenous in Hela cells (human (endogenous in Hela)) (UniProt O95801)
Assay: co-IP; SDS-PAGE of the anti-TTC4 immune pellet stained with colloidal coomassie blue; data not shown

Chain of HSP70, endogenous in Hela cells (P11142 whole entry): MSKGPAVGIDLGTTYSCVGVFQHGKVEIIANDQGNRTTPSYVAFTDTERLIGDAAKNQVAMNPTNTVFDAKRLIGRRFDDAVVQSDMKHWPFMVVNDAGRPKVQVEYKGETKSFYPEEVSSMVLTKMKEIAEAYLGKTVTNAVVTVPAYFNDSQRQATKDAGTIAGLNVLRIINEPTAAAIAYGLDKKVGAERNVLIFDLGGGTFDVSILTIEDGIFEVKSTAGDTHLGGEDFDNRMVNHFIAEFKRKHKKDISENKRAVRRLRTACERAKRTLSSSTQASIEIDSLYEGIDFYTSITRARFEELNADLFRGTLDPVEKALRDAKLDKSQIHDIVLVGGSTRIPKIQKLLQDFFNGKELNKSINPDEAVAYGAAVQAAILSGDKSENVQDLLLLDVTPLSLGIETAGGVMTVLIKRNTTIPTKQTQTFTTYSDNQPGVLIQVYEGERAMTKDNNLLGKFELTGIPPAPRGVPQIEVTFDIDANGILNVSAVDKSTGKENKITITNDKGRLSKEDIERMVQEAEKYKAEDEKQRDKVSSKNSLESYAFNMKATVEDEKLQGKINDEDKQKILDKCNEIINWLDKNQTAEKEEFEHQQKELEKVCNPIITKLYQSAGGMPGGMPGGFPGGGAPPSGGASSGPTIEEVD
Chain of TTC4, endogenous in Hela cells (human (endogenous in Hela)) (O95801 whole entry): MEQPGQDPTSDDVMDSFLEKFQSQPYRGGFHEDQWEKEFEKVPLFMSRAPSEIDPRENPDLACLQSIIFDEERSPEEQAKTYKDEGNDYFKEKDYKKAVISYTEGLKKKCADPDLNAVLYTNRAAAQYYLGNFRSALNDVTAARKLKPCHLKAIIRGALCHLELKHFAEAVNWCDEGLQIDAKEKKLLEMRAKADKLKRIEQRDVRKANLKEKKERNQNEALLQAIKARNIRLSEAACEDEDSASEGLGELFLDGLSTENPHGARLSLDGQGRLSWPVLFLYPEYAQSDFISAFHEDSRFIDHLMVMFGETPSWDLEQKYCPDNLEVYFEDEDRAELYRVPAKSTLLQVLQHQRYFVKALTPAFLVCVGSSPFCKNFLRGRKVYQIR

level in the immune pellet (colloidal coomassie): 20%
Substance: HSP70, endogenous in Hela cells (from UniProt P11142 1-646) (natural protein)
